Reference: the Human Domainome abundance scans (Beltran et al. 2025)

B1: LIM and senescent cell antigen-like-containing domain protein 2, residues 13 to 71; numbered along this chain, Q7Z4I7 (parent)
chain: AVCQRCQARFSPAERIVNSNGELYHEHCFVCAQCFRPFPEGLFYEFEGRKYCEHDFQML

Variants of: B1
Assay: abundance fitness (aPCA) (normalised: wild type 0, dead -1); higher = more abundant; growth selection in yeast, the domain comes from the species named
Conditions: Homo sapiens

Abundance fitness: each site, then its substitutions
C28: D -0.322 | M -0.418 | Q -0.872 | A -0.292 | K -0.538 | L -1.08 | V -0.77 | F -0.994 | E -0.62 | W -0.996 | I -0.728 | H -0.089 | P -1.13 | R -0.718
L42: H -0.198 | V -0.026 | Q -0.092 | S -0.064 | D -0.023 | N -0.012 | W -0.302 | A 0.02 | G -0.108 | F -0.301 | R 0.006 | E 0.083 | M 0.045 | C -0.062 | P -0.357 | I 0.112 | K 0.047 | T 0.07
E40: K -0.039 | W -0.31 | G -0.158 | D -0.018 | A -0.098 | V -0.266 | Y -0.212 | N -0.236 | H 0.023 | T -0.15 | L -0.068 | Q -0.105 | I -0.752
Y44: A -0.404
C31: L -0.709 | M -0.785 | Q -1.06 | E -0.612 | T -0.975 | R -0.767 | F -0.954 | S -0.896 | G -0.774 | H -0.481 | W -0.893 | K -1.1 | V -1.04 | D -0.574 | I -0.76 | P -0.888
L23: W -0.168 | Q 0.123 | S -0.003 | R 0.017 | T -0.009 | Y 0.186
H25: Y -0.786 | K -0.929 | T -0.808 | R -0.784 | S -0.894 | W -0.568 | L -0.668 | M -0.856 | V -0.838 | P -0.752 | G -0.832 | C 0.048 | A -0.918 | D -0.96 | Q -0.987 | I -0.972 | F -0.895
F38: K -0.238 | P -0.101 | I -0.55 | M -0.225 | R -0.571 | E -0.512 | Y -0.638 | D -0.522 | C -0.18 | A -0.318 | H -0.784 | N -0.113 | W -0.273 | G -0.58 | L 0.045 | T -0.123 | Q -0.606
P39: Q -0.058 | T -0.091 | F -0.565 | S -0.124 | V -0.017 | E -0.024 | G -0.159 | R -0.107 | A -0.056 | K -0.064 | H -0.383 | D 0.05 | M -0.143 | I -0.396 | C 0.01 | L -0.211 | W -0.206 | Y -0.396
Y24: L -0.057 | Q -0.282 | H -0.16 | E -0.303 | T -0.232 | K -0.257 | D -0.444 | V -0.072 | C -0.116 | N -0.474 | I -0.137 | G -0.238 | W -0.123 | F 0.007
A32: W -0.149 | D -0.026 | L -0.322 | G -0.073 | K -0.274 | Q 0.083 | H 0.118 | E 0.014 | I -0.117 | S -0.172 | Y 0.147 | F -0.258 | V -0.001 | R -0.26 | C -0.354 | M -0.099
C34: S -1 | T -1.13 | M -0.474 | D -0.757 | E -0.788 | W -1.1 | A -0.871 | P -0.508 | G -0.544 | L -0.52 | Q -0.622 | V -1.04 | Y -0.933 | N -0.865 | K -0.901 | R -0.668 | F -1.19
